In data set [1] the target is T1, GST-AP2IV-4 (AP2 domain) (Toxoplasma gondii, UniProt S8FCP8 782-854). Description: competition; 300x excess unlabeled against N1; did not compete; EMSA: 20 fmol probe, 50 ng protein, 6% PAGE, LightShift Chemiluminescent EMSA kit; buffer, salt, pH and temperature not stated. Particulars: protein: recombinant; tags: GST (N-terminal, pGEX4T3); label: none; blunt. (In general: A gel shift assay detects complexes by their altered migration in electrophoresis.)

For data set [2], the target named is T1, GST-AP2IV-4 (AP2 domain). The experiment in a line: EMSA; 50 ng protein, 20 fmol probe; EMSA: 20 fmol probe, 50 ng protein, 6% PAGE, LightShift Chemiluminescent EMSA kit; buffer, salt, pH and temperature not stated. Particulars: protein: recombinant; tags: GST (N-terminal, pGEX4T3); label: 5'-biotin; blunt.
Data set [3] concerns the target T1, GST-AP2IV-4 (AP2 domain). The experiment in a line: competition; 300x excess unlabeled against N1; EMSA: 20 fmol probe, 50 ng protein, 6% PAGE, LightShift Chemiluminescent EMSA kit; buffer, salt, pH and temperature not stated. Conditions: protein: recombinant; tags: GST (N-terminal, pGEX4T3); label: none; blunt.

B1: PBM scrambled cold competitor (60 bp) (dsDNA)
DNA 1: TACCCTGCCTCTTGTAGTAGTAACGTAAAAGAGGTAACGTGGTCAAATGCGATCAGAGAT
DNA 2: ATCTCTGATCGCATTTGACCACGTTACCTCTTTTACGTTACTACTACAAGAGGCAGGGTA
B1: in the data set with GST-AP2IV-4 (AP2 domain) [1], the binding result was “no binding”.

B2: PBM motif validation probe (WT, 59 bp) (dsDNA)
DNA 1: TTTGTAATATACGCTCCACCGCGTGCACCCCCCTCGACATGCCCCCGTATTGCTGATCG
DNA 2: CGATCAGCAATACGGGGGCATGTCGAGGGGGGTGCACGCGGTGGAGCGTATATTACAAA
Turning to B2, in the data set with GST-AP2IV-4 (AP2 domain) [2], the binding result is reported as “binds”.

B3: PBM motif validation, unlabeled poly(dC) competitor (dsDNA)
DNA 1: B2 DNA 1
DNA 2: B2 DNA 2
With B3, the binding result with GST-AP2IV-4 (AP2 domain) [3] is recorded as “binds”.
